Numbering of substitutions follows the chain as printed.
B1: 485G10 humanized VH3 + VL4 (antibody, V domains shown)
VH: QVQLVQSGAEVKKPGASVKLSCKGSGFNIKDYYIHWVKQAPGQGLEWIGRIDPEDAETKYAPKFQGRATITADTSISTAYLELSRLRSDDTVVYYCGRYHGYWALDYWGQGTLVTVSS
VL: DIQMTQSPSSLSTSVGDRVTVTCKTSQNVGTNVAWYQQKPGKAPKPLIYSTSYRYSGVPSRFSGSGSGTDFTLTISSVQPEDFATYYCHQYFSYPYTFGPGTKLDIK
notes: Humanized IgG expressed in HEK293; also called VH3 + VL4 (485G10)
B2: 485G10 humanized VH3 + VL1 (antibody, V domains shown)
VH: B1 VH
VL: B1 VL with T13A, V21I, Y36F, P46S, V78L, L104V
notes: Humanized IgG expressed in HEK293; also called VH3 + VL1 (485G10)
B3: 8G11 humanized VH3 + VL3 (antibody, V domains shown)
VH: QVQLVQSGAEVVKPGASVKVSCKGSGFNIKDYYMHWVKQAPGQGLEWIGRIDPEDAETKYAPKFQGRVTITADTSTSTVYLELSSLRSEDTAVYYCARGGNFYVMDYWGQGTLVTVSS
VL: DIQLTQSPSFLSTSVGDRVTITCKASQNVGTNVVWYQQKPGKSPKVLIYSASYRVSGVPSRFSGSGSGTEFTLIISSVQPEDFATYFCQQKNNYPYTFGQGTKLEIK
notes: Humanized IgG expressed in HEK293; also called VH3 + VL3 (8G11)
B4: 8G11 humanized VH1 + VL2 (antibody, V domains shown)
VH: B3 VH with V12K, G24A, K38R, I48M, I70M, A72R, L81M
VL: B3 VL with V78L, F87Y
notes: Humanized IgG expressed in HEK293; also called VH1 + VL2 (8G11)
B5: 8G11 humanized VH1 + VL3 (antibody, V domains shown)
VH: B3 VH with V12K, G24A, K38R, I48M, I70M, A72R, L81M
VL: B3 VL
notes: Humanized IgG expressed in HEK293; also called VH1 + VL3 (8G11)
B6: 8G11 humanized VH1 + VL4 (antibody, V domains shown)
VH: B3 VH with V12K, G24A, K38R, I48M, I70M, A72R, L81M
VL: B3 VL with L4M, I21V
notes: Humanized IgG expressed in HEK293; also called VH1 + VL4 (8G11)
B7: 8G11 humanized VH2 + VL3 (antibody, V domains shown)
VH: B3 VH with K38R, I70M, L81M
VL: B3 VL
notes: Humanized IgG expressed in HEK293; also called VH2 + VL3 (8G11)
B8: 8G11 humanized VH2 + VL4 (antibody, V domains shown)
VH: B3 VH with K38R, I70M, L81M
VL: B3 VL with L4M, I21V
notes: Humanized IgG expressed in HEK293; also called VH2 + VL4 (8G11)
B9: 8G11 humanized VH3 + VL1 (antibody, V domains shown)
VH: B3 VH
VL: B3 VL with T13A, S43A, V46L, I74T, V78L, F87Y
notes: Humanized IgG expressed in HEK293; also called VH3 + VL1 (8G11)
B10: 8G11 humanized VH3 + VL2 (antibody, V domains shown)
VH: B3 VH
VL: B3 VL with V78L, F87Y
notes: Humanized IgG expressed in HEK293; also called VH3 + VL2 (8G11)
B11: 8G11 humanized VH3 + VL4 (antibody, V domains shown)
VH: B3 VH
VL: B3 VL with L4M, I21V
notes: Humanized IgG expressed in HEK293; also called VH3 + VL4 (8G11)
B12: 8G11 humanized VH4 + VL1 (antibody, V domains shown)
VH: B3 VH with V20L, V68A, V79A
VL: B3 VL with T13A, S43A, V46L, I74T, V78L, F87Y
notes: Humanized IgG expressed in HEK293; also called VH4 + VL1 (8G11)
B13: 8G11 humanized VH4 + VL2 (antibody, V domains shown)
VH: B3 VH with V20L, V68A, V79A
VL: B3 VL with V78L, F87Y
notes: Humanized IgG expressed in HEK293; also called VH4 + VL2 (8G11)
B14: 8G11 humanized VH4 + VL4 (antibody, V domains shown)
VH: B3 VH with V20L, V68A, V79A
VL: B3 VL with L4M, I21V
notes: Humanized IgG expressed in HEK293; also called VH4 + VL4 (8G11)

Columns and labels:
[1] = target: T1, human IFNAR-1 protein (form not stated) (human, UniProt P17181 28-436, limits assumed); experiment: affinity ranking of expressed humanized 485G10 IgGs (method not named)
T1 construct: bispecific ELISA
T1 sequence (looked up): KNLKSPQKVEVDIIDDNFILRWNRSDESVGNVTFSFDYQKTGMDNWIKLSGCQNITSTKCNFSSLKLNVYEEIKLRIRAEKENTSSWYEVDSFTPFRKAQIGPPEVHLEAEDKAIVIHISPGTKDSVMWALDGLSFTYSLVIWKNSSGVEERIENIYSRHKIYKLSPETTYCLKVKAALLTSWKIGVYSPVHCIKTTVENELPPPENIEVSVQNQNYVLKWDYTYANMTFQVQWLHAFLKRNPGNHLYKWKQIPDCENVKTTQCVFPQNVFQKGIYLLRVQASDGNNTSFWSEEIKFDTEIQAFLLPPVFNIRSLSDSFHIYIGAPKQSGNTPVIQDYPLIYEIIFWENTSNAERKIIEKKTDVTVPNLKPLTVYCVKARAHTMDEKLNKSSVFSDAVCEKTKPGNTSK

[2] = target: T1, human IFNAR-1 protein (form not stated); experiment: affinity ranking of expressed humanized 8G11 IgGs (method not named)

Binder | Kd [1] [pM] | koff [1] [s⁻¹] | kon [1] [M⁻¹ s⁻¹] | Kd [2] [pM] | koff [2] [s⁻¹] | kon [2] [M⁻¹ s⁻¹]
B1 | 766 | 0.000271 | 354000 | – | – | –
B2 | 19100 | 0.0185 | 971000 | – | – | –
B3 | – | – | – | 364 | 0.00011 | 301000
B4 | – | – | – | 765 | 0.000127 | 167000
B5 | – | – | – | 865 | 0.0002 | 231000
B6 | – | – | – | 836 | 0.000141 | 169000
B7 | – | – | – | 364 | 9.65e-05 | 265000
B8 | – | – | – | 388 | 0.000102 | 262000
B9 | – | – | – | 413 | 0.000106 | 256000
B10 | – | – | – | 389 | 0.000111 | 284000
B11 | – | – | – | 401 | 0.000113 | 281000
B12 | – | – | – | 489 | 9.94e-05 | 203000
B13 | – | – | – | 332 | 9.69e-05 | 292000
B14 | – | – | – | 372 | 0.000105 | 283000
